Here are results for 2 substances from publication doi:10.1101/2025.02.04.636450.

Test [1] deals with circularly permuted AaLS with a Strep II tag in place of the His-tag region (cpAaLS(Strep)) (Aquifex aeolicus).
Test [2] deals with wildtype lumazine synthase from Aquifex aeolicus (AaLS-wt) (Aquifex aeolicus) (UniProt O66529). Briefly: absorbance ratio at 280/475 nm.
Test [3] deals with circularly permuted AaLS with a His-tag in the linker connecting native termini (cpAaLS(His)) (Aquifex aeolicus). Briefly: absorbance ratio at 280/475 nm.

The stoichiometry N is a count of units in the complex or per binding partner.

Turning to “circularly permuted AaLS with a Strep II tag in place of the His-tag region (cpAaLS(Strep))”, in test [1], the stoichiometry N was determined as 5.
For “cpAaLS-GFP-SsrA (GFP-SsrA fused to the C-terminus of cpAaLS)”, the GFP molecules per pentamer (GFP molecules per pentamer) was 0.11 in test [2] and 0.14 in test [3].
